Data reported in the Immune Epitope Database (IEDB).
One block for each sequence: values may come before it.

Legend:
HLA-A*01:01 = assay: IEDB peptide-MHC binding, purified MHC/competitive/fluorescence; ≥ and ≤ were set here for values at or beyond the usual limits of such assays; conditions: source organism: Monodelphis domestica
HLA-A*02:01 [1] = assay: as above; conditions: source organism: Monodelphis domestica
HLA-A*03:01 [2] = assay: as above; conditions: source organism: Monodelphis domestica
HLA-A*11:01 = assay: as above; conditions: source organism: Monodelphis domestica
HLA-A*24:02 = assay: as above; conditions: source organism: Monodelphis domestica
HLA-A*25:01 [3] = assay: as above; conditions: source organism: Monodelphis domestica
HLA-A*29:02 [4] = assay: as above; conditions: source organism: Monodelphis domestica
HLA-A*31:01 = assay: as above; conditions: source organism: Monodelphis domestica
HLA-A*68:02 [5] = assay: as above; conditions: source organism: Monodelphis domestica
HLA-B*07:02 = assay: as above; conditions: source organism: Monodelphis domestica
HLA-B*08:01 = assay: as above; conditions: source organism: Monodelphis domestica
HLA-B*14:02 = assay: as above; conditions: source organism: Monodelphis domestica
HLA-B*18:01 [6] = assay: as above; conditions: source organism: Monodelphis domestica
HLA-B*35:01 = assay: as above; conditions: source organism: Monodelphis domestica
HLA-B*37:01 = assay: as above; conditions: source organism: Monodelphis domestica
HLA-B*40:02 = assay: as above
HLA-B*44:03 = assay: as above; conditions: source organism: Monodelphis domestica
HLA-B*51:01 [7] = assay: as above; conditions: source organism: Monodelphis domestica
HLA-B*53:01 = assay: as above; conditions: source organism: Monodelphis domestica
HLA-B*58:01 [8] = assay: as above; conditions: source organism: Monodelphis domestica
HLA-B*40:01 = assay: IEDB peptide-MHC binding, purified MHC/competitive/fluorescence; filed as Kd, often an IC50 or EC50 that approximates it; ≥ and ≤ were set here for values at or beyond the usual limits of such assays; conditions: source organism: Bacillus cereus G9241
HLA-A*02:01 [9] = assay: as above; conditions: source organism: Giardia lamblia ATCC 50803
HLA-A*02:03 = assay: as above; conditions: source organism: Giardia lamblia ATCC 50803
HLA-A*02:12 [10] = assay: as above; conditions: source organism: Giardia lamblia ATCC 50803
HLA-A*02:16 [11] = assay: as above; conditions: source organism: Giardia lamblia ATCC 50803
HLA-A*02:19 = assay: as above; conditions: source organism: Giardia lamblia ATCC 50803
HLA-A*03:01 [12] = assay: as above; conditions: source organism: Giardia lamblia ATCC 50803
HLA-A*25:01 [13] = assay: as above; conditions: source organism: Giardia lamblia ATCC 50803
HLA-A*26:01 [14] = assay: as above; conditions: source organism: Giardia lamblia ATCC 50803
HLA-A*29:02 [15] = assay: as above; conditions: source organism: Giardia lamblia ATCC 50803
HLA-A*68:02 [16] = assay: as above; conditions: source organism: Giardia lamblia ATCC 50803
HLA-A*69:01 [17] = assay: as above; conditions: source organism: Giardia lamblia ATCC 50803
HLA-B*27:03 [18] = assay: as above; conditions: source organism: Giardia lamblia ATCC 50803
HLA-B*39:01 = assay: as above
HLA-B*46:01 [19] = assay: as above; conditions: source organism: Giardia lamblia ATCC 50803
HLA-A*02:01 [20] = assay: IEDB peptide-MHC binding, purified MHC/direct/fluorescence; filed as Kd, often an IC50 or EC50 that approximates it; ≥ and ≤ were set here for values at or beyond the usual limits of such assays; conditions: source organism: Vibrio parahaemolyticus AQ3810
HLA-A*02:06 = assay: as above; conditions: source organism: Vibrio parahaemolyticus AQ3810
HLA-A*02:12 [21] = assay: as above; conditions: source organism: Vibrio parahaemolyticus AQ3810
HLA-A*02:16 [22] = assay: as above; conditions: source organism: Vibrio parahaemolyticus AQ3810
HLA-A*03:01 [23] = assay: as above; conditions: source organism: Vibrio parahaemolyticus AQ3810
HLA-A*26:01 [24] = assay: as above; conditions: source organism: Vibrio parahaemolyticus AQ3810
HLA-A*29:02 [25] = assay: as above; conditions: source organism: Vibrio parahaemolyticus AQ3810
HLA-A*69:01 [26] = assay: as above; conditions: source organism: Vibrio parahaemolyticus AQ3810
HLA-B*15:01 = assay: as above; conditions: source organism: Vibrio parahaemolyticus AQ3810
HLA-B*15:17 = assay: as above; conditions: source organism: Vibrio parahaemolyticus AQ3810
HLA-B*18:01 [27] = assay: as above; conditions: source organism: Vibrio parahaemolyticus AQ3810
HLA-B*27:03 [28] = assay: as above; conditions: source organism: Vibrio parahaemolyticus AQ3810
HLA-B*46:01 [29] = assay: as above; conditions: source organism: Vibrio parahaemolyticus AQ3810
HLA-B*51:01 [30] = assay: as above; conditions: source organism: Vibrio parahaemolyticus AQ3810
HLA-B*57:01 = assay: as above; conditions: source organism: Vibrio parahaemolyticus AQ3810
HLA-B*58:01 [31] = assay: IEDB peptide-MHC binding, purified MHC/competitive/fluorescence; filed as Kd, often an IC50 or EC50 that approximates it; ≥ and ≤ were set here for values at or beyond the usual limits of such assays; conditions: source organism: Escherichia coli F11
HLA-A*02:05 = assay: IEDB peptide-MHC binding, purified MHC/competitive/radioactivity; filed as Kd, often an IC50 or EC50 that approximates it; ≥ and ≤ were set here for values at or beyond the usual limits of such assays; conditions: source organism: Homo sapiens
HLA-B*44:02 = assay: IEDB peptide-MHC binding, purified MHC/competitive/fluorescence; ≥ and ≤ were set here for values at or beyond the usual limits of such assays; conditions: source organism: Homo sapiens
HLA-B*27:05 = assay: IEDB peptide-MHC binding, purified MHC/competitive/fluorescence; filed as Kd, often an IC50 or EC50 that approximates it; ≥ and ≤ were set here for values at or beyond the usual limits of such assays; conditions: source organism: Shigella boydii CDC 3083-94

Sequence: GEIVLCHVL
Kd (HLA-B*40:01): 0.005 µM

Sequence: KVSWRWMVY
Kd (HLA-A*02:01 [9]): ≥ 20 µM | Kd (HLA-A*02:03): ≥ 20 µM | Kd (HLA-A*02:12 [10]): ≥ 20 µM | Kd (HLA-A*02:16 [11]): ≥ 20 µM | Kd (HLA-A*02:19): ≥ 20 µM | Kd (HLA-A*03:01 [12]): 0.0043 µM | Kd (HLA-A*25:01 [13]): ≥ 20 µM | Kd (HLA-A*26:01 [14]): ≥ 20 µM | Kd (HLA-A*29:02 [15]): 0.148 µM | Kd (HLA-A*68:02 [16]): ≥ 20 µM | Kd (HLA-A*69:01 [17]): ≥ 20 µM | Kd (HLA-B*27:03 [18]): ≥ 20 µM | Kd (HLA-B*39:01; source organism: Giardia lamblia ATCC 50803): ≥ 20 µM | Kd (HLA-B*46:01 [19]): ≥ 20 µM

Sequence: MQGKDFNHL
Kd (HLA-A*02:01 [20]): ≥ 20 µM | Kd (HLA-A*02:06): 0.009 µM | Kd (HLA-A*02:12 [21]): 1.21 µM | Kd (HLA-A*02:16 [22]): ≥ 20 µM | Kd (HLA-A*03:01 [23]): ≥ 20 µM | Kd (HLA-A*26:01 [24]): ≥ 20 µM | Kd (HLA-A*29:02 [25]): ≥ 20 µM | Kd (HLA-A*69:01 [26]): ≥ 20 µM | Kd (HLA-B*15:01): ≥ 20 µM | Kd (HLA-B*15:17): ≥ 20 µM | Kd (HLA-B*18:01 [27]): ≥ 20 µM | Kd (HLA-B*27:03 [28]): ≥ 20 µM | Kd (HLA-B*46:01 [29]): ≥ 20 µM | Kd (HLA-B*51:01 [30]): ≥ 20 µM | Kd (HLA-B*57:01): ≥ 20 µM

Sequence: WRLVYASAV
Kd (HLA-B*27:05): 0.0753 µM | Kd (HLA-B*39:01; source organism: Shigella boydii CDC 3083-94): 0.0118 µM

Now from value to sequence:

IC50 (HLA-A*01:01): ≥ 20 µM | IC50 (HLA-A*02:01 [1]): 0.0053 µM | IC50 (HLA-A*03:01 [2]): ≥ 20 µM | IC50 (HLA-A*11:01): ≥ 20 µM | IC50 (HLA-A*24:02): ≥ 20 µM | IC50 (HLA-A*25:01 [3]): ≥ 20 µM | IC50 (HLA-A*29:02 [4]): 0.206 µM | IC50 (HLA-A*31:01): ≥ 20 µM | IC50 (HLA-A*68:02 [5]): ≥ 20 µM | IC50 (HLA-B*07:02): ≥ 20 µM | IC50 (HLA-B*08:01): ≥ 20 µM | IC50 (HLA-B*14:02): ≥ 20 µM | IC50 (HLA-B*18:01 [6]): ≥ 20 µM | IC50 (HLA-B*35:01): 0.206 µM | IC50 (HLA-B*37:01): ≥ 20 µM | IC50 (HLA-B*40:02; source organism: Monodelphis domestica): ≥ 20 µM | IC50 (HLA-B*44:03): ≥ 20 µM | IC50 (HLA-B*51:01 [7]): ≥ 20 µM | IC50 (HLA-B*53:01): ≥ 20 µM | IC50 (HLA-B*58:01 [8]): ≥ 20 µM
Sequence: FLLPILSQIYT

Kd (HLA-B*58:01 [31]): 0.143 µM
Sequence: QHFGLIPQW

Kd (HLA-A*02:05): 0.09 µM
Sequence: RLFPGLAIKI

IC50 (HLA-B*40:02; source organism: Homo sapiens): 0.0124 µM | IC50 (HLA-B*44:02): ≥ 20 µM
Sequence: SDFQVHFL
